Results: publication doi:10.1101/2020.05.29.123786
Where “and” joins values, the source holds several entries; their conditions need not be identical. Identical values can stand only once.

T1: PilQ from Pseudomonas aeruginosa (type IVa pilus secretin) (Pseudomonas aeruginosa), P34750
T1 chain: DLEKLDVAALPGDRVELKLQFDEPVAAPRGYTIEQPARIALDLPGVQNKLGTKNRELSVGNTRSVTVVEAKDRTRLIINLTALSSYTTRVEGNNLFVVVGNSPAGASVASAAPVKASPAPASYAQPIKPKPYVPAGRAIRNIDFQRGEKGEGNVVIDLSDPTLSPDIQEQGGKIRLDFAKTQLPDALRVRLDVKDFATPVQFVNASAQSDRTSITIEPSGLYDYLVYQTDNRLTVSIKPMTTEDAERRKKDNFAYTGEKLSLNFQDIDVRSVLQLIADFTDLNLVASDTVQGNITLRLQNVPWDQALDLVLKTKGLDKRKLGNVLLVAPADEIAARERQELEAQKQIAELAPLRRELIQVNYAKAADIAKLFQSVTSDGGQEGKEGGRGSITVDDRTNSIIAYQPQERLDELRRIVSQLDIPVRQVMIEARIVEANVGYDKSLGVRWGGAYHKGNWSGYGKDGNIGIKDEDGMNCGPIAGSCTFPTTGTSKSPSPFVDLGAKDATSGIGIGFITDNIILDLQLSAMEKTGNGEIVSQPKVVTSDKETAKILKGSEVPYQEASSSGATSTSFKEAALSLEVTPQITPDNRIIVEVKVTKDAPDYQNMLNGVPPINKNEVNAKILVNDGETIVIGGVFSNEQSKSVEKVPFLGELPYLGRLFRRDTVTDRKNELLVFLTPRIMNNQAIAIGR

B1: PilQ from Pseudomonas aeruginosa (type IVa pilus secretin), P34750 25-714 (natural protein)
chain: T1 chain

Columns and labels:
Assay in all cases: cryo-EM structure
[1] = target: PilQ from Pseudomonas aeruginosa (type IVa pilus secretin) (Pseudomonas aeruginosa) (UniProt P34750)
[2] = target: TsaP from Pseudomonas aeruginosa (Pseudomonas aeruginosa)
[3] = target: T1, PilQ from Pseudomonas aeruginosa (type …); settings: remark: other sources report otherwise

Row | Molecule | stoichiometry N (TsaP per PilQ) [1] | stoichiometry N [2] | stoichiometry N [3]
1 | TsaP from Pseudomonas aeruginosa (natural protein) | 0.5 | 7 | –
2 | B1 | – | – | 14 and 15
